assay: yeast display, Sf9 membrane polyspecificity reagent, FACS + sequencing; frameworks hold sequencing errors
In short: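 Synthetic nanobody libraries on Saccharomyces cerevisiae BJ5465 were galactose-induced for 36–48 hours, stained 1 hour at 4 °C with 10% biotinylated, detergent-solubilized Sf9 membrane reagent and enriched on streptavidin microbeads. FACS then separated cells into low and high (top ~1%) gates by anti-HA (expression) and streptavidin (reagent binding) fluorescence. Genes were colony-PCR amplified, MiSeq 2 × 250 sequenced and CDR-length filtered. A clone's polyreactivity label is that of its gate of origin.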

Sequence	polyreactivity (PSR sort gate)
QVQLVESGGGLVQAGGSLRLSCAASGLILYTYAMGWYRQAPGKERELVAALNSGGRTYSADSVKGRFTISRDNAKNTVYLQMNSLKPEDTAVYYCAADYGSRVRGFNYWGQGTQVTVSS	low polyreactivity
QVQLVESGGGLVQAGGSLRLSCAASGIIFPVYAMGWYRQAPGKERELVATIDSGGGTYYADSVKGRFTISRDNAKNTVYLQMNSLKPEDTAVYYCAADLWVGLVSLWDGYVEYDYWGQGTQVTVSS	low polyreactivity
QVQLVESGGGLVQAGGSLRLTCAASGYTFNYYAKGWYRQAPGKERELVAAIDWSDGTTYYADSVKGRFTISPDYAKNTVYLQMNSLKPEDTAVYYCAASLSQSEYDYWGQGTLVTVSS	low polyreactivity
QVQLVESGGGLVQAGGSLSLSCAASGLTFANYVMGWYRQEPGKERELVAAISRSGGSTYYADSVKGRFTISRDNAKNTVYLQMNSLKPEDPAVYYCAAAAWDPKGSRYDYWGQGPQVTVSS	low polyreactivity
QVQLVESGGGLVQAGGSLRLSCAASGITFPRYAMGWYRQAPGKERELVARITSGGRTNYADSVKGRFTISRDNAKNTVYLQMYSLKPEDTAVYYCNAVGWVRSQVRLGYWGQGTQVTVSS	high polyreactivity
QVQLVESGGGLDQARGSLRLSCAASGSTFKRKPLGWYRQATGKERELVAAITQSGGSTYYADSVKGRFTISRDNAKNTVYLLMYSLKPEDTSVYYCAASYLRGRRYEYWGQGTQVTVSS	high polyreactivity
QVQLVESGGGLVQAGGSLRLSCAASGSIFTKYAMGWYRQAPGKERELVAAISQGGASTRYADSVKGRFTISRDNAKNTVYLQMNSLKPVDTADEYCAAKSRHFWMDYWGQGTQVTVSS	high polyreactivity
QVQLVESGGGLVQAGGSLRLSCAASGFTFAANTMGWYRQAPGKERELVADISGRGDRTSYADSVKGRFTISRDNAKNTVYLQMNSLKPEDTAVYYCAVDIYYYSNVHYYYWGQGTQVTVSS	low polyreactivity
QVQLVESGGGLVQAGGSLRLSCAASGYIFVFNTMGWYRQAPGKERELVASISWDAGSTYYADSVKGRFTISRDNAKNTVYLQMNSLKPEDTAVDYCNAGRIRSGSPDYWGQGTQVTVSS	low polyreactivity
QVQLVESGGGLVQAGGSLRLSCAASGFIFDQNAMGWYRQAPGKERELVAAITRSGGCTYYADSVKGRFTISRDNAKNTVYLQMYSLNPEDTAVYYCAADLSYRGATRGDYYWGPGTQVTVSS	low polyreactivity
QVQLVESGGGLVQAGGSLRLSCAASGSTFGYYTMGWYRQSPGKERELVAAITWRGGRTYYADSVKGRFTISRDNEKNTVYLQMNSLKPEDTAVYYCAARSTVVMDYWGQGTKVTVSS	high polyreactivity
QVQLVESRAGLVQEGGSLRVSCAASGNILGTYAMGWYRQAPGKERELVAAISSSVGSTYYADSVKARFTISRDNAKNTVYLQINSLKPEDTAVYYCAPQPRVDYEFPYRYGYWGQGSQVTVSS	low polyreactivity
QVQLVESGGGLVQAGGSLRLSCAASGRIFKYYSMGWYRQAPGKERELVAAITRGGSTNYADSVKGRFTISRDNAKNTFYLQMKSLKTEDTEVYYCAVDTVRNHLMDYWGQGNQVTVSS	low polyreactivity
QVQLVESGGGLVQAGGSLRLTCAASGYAMGWYRQAPGKERELVAAISWSGDITYADSVKGRFTISRDNAKNTVYLQMNRLKPEDTAVYSCNADRYTGRDGEQSLDYWGQGTQVTVSS	low polyreactivity
QVQLQESGGGLVQAGGSLRLSCAASGYISFSGYMGRYRQAPGKEREFVDSITPGRSTYYADSVKGRFTISRDNAENTVYLQMNSLQPEDTAVDYCAADDSRTEQHAYWGQGTQVTVRS	high polyreactivity
QVQLVESGGGLVQAGGSLRLTCAASGITFGRNVMGWYRQAPGKEMELVATISGSAGYTYYADSVKGRFTISRDYAKNTVYFQMNSLKPEDTSVYYCAARQRKARQIVLLDYWGQGTKVTVSS	high polyreactivity

Sequence	polyreactivity (PSR sort gate)
QVQLVESGGGLVQAGGSLRLSCAASGITFPSYVMGWYRQAPGKEREFVAAITGSAGSTYYADSVKGRFTISRDNAKNTVYLQMNSLKPADTAVYYCAARVRYVNPKYYYWGQGTQVTVSS	high polyreactivity
QVQLVESGGGLVQAGGSLRLSCAASGSTFPYYTMGWYRQAPGKERELVAAITWRGGRTYYADSVKGRFTISRDNAKNTVYLQMNSLKPEDTAVYYCAAVTWVHRYSRFHPFVAFDFWGQGTQVTVSS	high polyreactivity
QVQLVESGGGLVQAGGSLRLSCAASGRTFYANAMGWYRQAPGKERELVAAISWGGGSTYYADSVKGRFTISRDNAKNTVYLQMNSLKPEDTAVYYCNADLGRATFYQRVFIERGGYWGQGTQVTVSS	low polyreactivity
QVQLVESGGGLVQPGGSLRLSCAASGRISSYYAMGWYRQAPGKERELVAAISNAGSTKYADSVKGRFTISRDNAKNTVYLQMNRLKPEDTAVYYCNARSYRWSWVLRYDYWGKGTQVTVSS	high polyreactivity
QVQLVESGGGLVQAGGSLRLSCAASGSTFFIYAMGWYRQAPGKERELVAAISGSGGTTYYADSVKGRFTISRDNAKNTVYLQMNSLKPEDTAVYYCNKDYYPGSYDYWGQGTQVTVSS	low polyreactivity
QVQLVESGGGLVQAGGSLRLSCAASGSIFIGNAMGWYRQAPGKERELVAVISKGGGRTYYADSVKGRFTISRDNAKNTVYLQMNSLKPEDSAVYYCNTRNPHRGDYWGQGTQVTVSS	high polyreactivity
QVQLVESGGGLVQAGGSLRLSCAASGLMFRHYAMGWYRPAPGKERELVAAIDYSGGSTYYADSVKGRFTISRDNAKNTVYLQMNCLKPEDTAVYYCNRYHRLRVVPSRFVKYDYWGQGTQVTVSS	low polyreactivity
QVHLVESGGGLVQAGGSLRLSCAASGSTFSGYTMGWYRQAPGKEREFVAAISSRGGSTYYADSVKGRFTISRDNAKNSVYLQMNSVNPEDTAVYYCAAKVWARVDGRQFRLEYWGQGTQVTVSS	high polyreactivity
QVQLVESVGGLVQAGGSLRLSCAASGSTFRPYAMGWSRQAPGKERELVAAITGSGGSTYYADSVKGRFTISRDNAKNTVYLQMNSLKPEDTAVYYCNAVSTWRYYYWGQGTQVTVSS	high polyreactivity
QVQLVESWGGLVQAGGSLRLSCAASGFTFLNYAMGWYRQAPGKERELVAAISFSTGRTYYADSVKGRFTISRDNAKNTDYLQMNSLKPEDTAVYYGAAGYWPGYSLTYRGGYWGQGTQVTVSS	high polyreactivity
QVQLVESGGGLVQAGGSLRLSCAASGRIFPWYAMGWYRQAPGKEREVVAAIRWRGGGTYYADSVKGRFTISRDNAKNTVYLQMNSLKPEDTAVYYCAARRPANGMGYWGQGTQVTVSS	high polyreactivity
QVQLVESGGGLVQAGGSLRLSCAASGSIFASNTMGWYRQAPGKERELVAAISFRGGRTYYADSVKGRFTISRDNAKNTVYLQMNSLKPEDTAVYYCNAAYGRYPRGGYWGQGTQVTVSS	high polyreactivity
QVQLVESGGGLVQAGGSLRLSCAASGFTCKYYAMGWYRQAPGKERELVASINWSGGRTSYADSVKGRFTISRDNAKNTVYLQMNSLKREDTAVYYCARTPAGRGEYWGQGSQVTVSS	low polyreactivity
QVQLVESGGGLVQAGGSLRLSCAASGRTFERNAMGWYRPAPGKERELVAAITWSGVSTYYADSVKGRFTISRDNAKNTVYLQMNSLKPEDTAVYYCAADWDWRFHRMNYWGQGTQVTVSS	low polyreactivity
QVQLVESGGGLVQAGGSLRLSCAASGSIFGYNAMGWYRQAPGKEREFVAAIRWSSGSTYYADSVKGRFTISRDNAKNTVYLQMNSLKPEDTAVYYCATRQTYLYWGQGTQVTVSS	high polyreactivity
QVQLVESGGGLVQAGGSLRLSCAASGRIFRGYAMGWYRQAPGKERELVAAINSGGDTYYADSVKGRFTISRDNAKNTVYLQMNSLKPEDTAVYYCAAAWWDYGNGKYDYWGQGTQVTVSS	low polyreactivity

Reference: the nanobody polyreactivity screen of Harvey et al. (2022)
